Measurements: patent US11839630B2, “CAR-T cells targeting IL-1RAP and their use” (ETABLISSEMENT FRANCAIS DU SANG, priority 2017, dated 2023)
“And” between values parts separate entries of the source, which are not always exact repeats. Equal entries are not always repeated.

Biological target: T1, IL-1RAP (Homo sapiens, UniProt Q9NPH3)
T1 sequence (Q9NPH3 21-570): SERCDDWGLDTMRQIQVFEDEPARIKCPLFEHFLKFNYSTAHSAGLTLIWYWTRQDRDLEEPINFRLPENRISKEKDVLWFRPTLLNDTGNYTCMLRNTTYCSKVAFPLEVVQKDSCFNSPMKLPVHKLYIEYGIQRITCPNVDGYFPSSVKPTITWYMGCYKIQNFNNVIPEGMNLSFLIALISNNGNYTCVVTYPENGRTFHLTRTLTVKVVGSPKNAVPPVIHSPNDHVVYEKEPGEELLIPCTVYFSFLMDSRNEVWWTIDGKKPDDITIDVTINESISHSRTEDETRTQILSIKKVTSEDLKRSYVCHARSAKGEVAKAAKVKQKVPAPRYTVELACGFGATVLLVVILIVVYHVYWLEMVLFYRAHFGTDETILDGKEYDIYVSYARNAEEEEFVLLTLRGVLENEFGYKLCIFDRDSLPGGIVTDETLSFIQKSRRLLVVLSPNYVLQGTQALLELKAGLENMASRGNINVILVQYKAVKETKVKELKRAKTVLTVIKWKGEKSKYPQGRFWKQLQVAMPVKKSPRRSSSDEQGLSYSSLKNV
Assay: Immunostaining of FDA standard frozen normal tissue array
Type: binding
Set-up: FDA standard frozen tissue arrays, including 90 tissue cores (30 organs) of 3 individual donors per organ; tissue US Biomax; host or cells: FDA standard frozen normal human tissue array (30 organs, 3 donors each); key to Staining intensity (0 to 3+): negative (0); weak staining (1+); moderate staining (2+); strong staining (3+)
Details: for normal tissues in which staining was detected: 30 normal human tissues, 3 donors per organ
From the text: FIG. 22: (A) Tissue microarray. Representative #A3C3 staining of an US Food and Drug Administration standard frozen tissue array, including 90 tissue cores (30 organs) of 3 individual donors per organ (US Biomax, Rockville, MD, USA). Immunostaining was detected using the UltraView Universal DAB Detection Kit (Ventana, USA). Images were acquired and analyzed with NDP.view 2.0 software. […] (Scale bars, 100 μm.) High IL-1RAP (KU812)— or negative (Raji)-expressing cell lines were respectively used as positive or negative controls. (B) IL-1RAP R&D (red) or #A3C3 (blue) staining of HMEC-1 dermal endothelial cell line. Isotype IgG1 (gray) is depicted as overlay. RFI is provided for both staining.
In order to study specific or non-target tissue binding, FDA standard frozen tissue arrays, including 90 tissue cores (30 organs) of 3 individual donors per organ (US Biomax, Rockville, United States) were incubated as previously described. Immunostaining was detected using UltraView Universal DAB Detection Kit (Ventana, USA). Images were acquired and analyzed with NDP.view 2 software. High IL-1RAP (KU812) or negative (Raji) expressing cell lines were respectively used as positive or negative controls. The staining intensity was graduated as follows: negative (0), weak staining (1+), moderate staining (2+), or strong staining (3+). […]

Staining intensity (0 to 3+) (Adrenal gland, replicates): 0
Staining intensity (0 to 3+) (Cerebellum tissue, replicates): 0
Comments: epithelial cells stained (Colon): Epithelial cells (~30%);
Comments: inflammatory elements stained (Colon): inflammatory elements (100%)
Staining intensity (0 to 3+) (Colon, replicates): 3+
Staining intensity (0 to 3+) (Esophagus, replicates): 0
Staining intensity (0 to 3+) (Heart, replicates): 0
Staining intensity (0 to 3+) (Kidney, replicates): 0
Staining intensity (0 to 3+) (Liver, replicates): 0
Comments: stained elements (Lung): Few inflammatory elements
Staining intensity (0 to 3+) (Lung, replicates): 2+
Comments: endothelial cells stained (Lymph node): ~30% of endothelial cells
Staining intensity (0 to 3+) (Lymph node, replicates, listed as mAb#A3C3): 2+ and 1+
Staining intensity (0 to 3+) (Ovary, replicates): 0
Staining intensity (0 to 3+) (Pancreas, replicates): 1+
Staining intensity (0 to 3+) (Peripheral nerve, replicates): 0
Staining intensity (0 to 3+) (Pituitary gland, replicates): 0
Comments: cytotrophoblast cells stained (Placenta): Cytotrophoblast cells (~10%)
Staining intensity (0 to 3+) (Placenta, replicates): 0
Comments: endothelial cells stained (Prostate): ~10% of endothelial cells
Staining intensity (0 to 3+) (Prostate, replicates, listed as mAb#A3C3): 1+ (2×) and 0 (4×)
Staining intensity (0 to 3+) (Salivary gland, replicates): 0
Comments: endothelial cells stained (Skeletal muscle): ~10% of endothelial cells
Staining intensity (0 to 3+) (Skeletal muscle, replicates (first listing), listed as mAb#A3C3): 1+ and 0 (2×)
Staining intensity (0 to 3+) (Skeletal muscle, replicates (second listing)): 0
Staining intensity (0 to 3+) (Skin, replicates): 0
Comments: epithelial cells stained (Small intestine): Epithelial cells (~30%);
Comments: inflammatory elements stained (Small intestine): inflammatory elements (100%)
Staining intensity (0 to 3+) (Small intestine, replicates, listed as mAb#A3C3): 2+ and 0 and 1+
Staining intensity (0 to 3+) (Smooth muscle, replicates): 0
Staining intensity (0 to 3+) (Spinal cord, replicates): 0
Staining intensity (0 to 3+) (Spleen, replicates): 3+
Comments: epithelial cells stained (Stomach): few epithelial cells <10%
Comments: gastric mucosa cells stained (Stomach): Few gastric mucosa cells (~10%);
Staining intensity (0 to 3+) (Stomach, replicates, listed as mAb#A3C3): 1+ and 0 (2×)
Staining intensity (0 to 3+) (Testis, replicates): 0
Staining intensity (0 to 3+) (Thyroid gland, replicates): 0
Staining intensity (0 to 3+) (Ureter, replicates): 0
Staining intensity (0 to 3+) (Uterine cervix, replicates): 0
B1: #E3C3: mouse anti-hIL-1RAP monoclonal antibody subclone generated by standard hybridoma technique; VH SEQ ID NO: 2, VL SEQ ID NO: 4 (antibody, V domains shown)
VH: MGWSCIILFLVATATGVNSQVQLQQPGAELMMPGASVKVSCEASGYTFTDSWMHWVKQRPGQGLEWIGAIDPSDSYTTYNQKFTGKATLSVDESSNTAYMQLSSLTSEDSAVYYCARYYSGSNYISPFPYWGQGTLVTVSA
VL: MESQIQVFVFVFLWLSGVDGDIVMTQSHKFMSTSVGDRVTITCKASLDVSTAVAWYQQKPGQSPKLLIYSASYRYTGVPDRFTGSGSGTDFTFTISSVQAEDLAVYYCQQHYSPPFTFGSGTNLEIK
modifications: Amino acid sequence of chain H (VH) of murine scFv anti-IL-1RAP; Amino acid sequence of chain K (VL) of murine scFv anti-IL-1RAP
normal tissues in which staining was detected: only 6 tissues as Lymph node, colon, small intestine, placenta, stomach and prostate
normal tissues in which staining was detected (listed as #A3C3): only six tissues: lymph node, prostate, skeletal muscle, stomach, colon and small intestine, and pancreas
Comments: stained elements (Spleen): Necrotic elements
